According to PMC2275666 (The EMBO Journal, 2008):
Substitutions are numbered along the chain they refer to.

Tests used:
Test in all cases: pull-down
6H–hTFIIEα V390A = molecular target: T1, 6H–hTFIIEα V390A (human, UniProt P29083 1-439, V390A)
T1 sequence: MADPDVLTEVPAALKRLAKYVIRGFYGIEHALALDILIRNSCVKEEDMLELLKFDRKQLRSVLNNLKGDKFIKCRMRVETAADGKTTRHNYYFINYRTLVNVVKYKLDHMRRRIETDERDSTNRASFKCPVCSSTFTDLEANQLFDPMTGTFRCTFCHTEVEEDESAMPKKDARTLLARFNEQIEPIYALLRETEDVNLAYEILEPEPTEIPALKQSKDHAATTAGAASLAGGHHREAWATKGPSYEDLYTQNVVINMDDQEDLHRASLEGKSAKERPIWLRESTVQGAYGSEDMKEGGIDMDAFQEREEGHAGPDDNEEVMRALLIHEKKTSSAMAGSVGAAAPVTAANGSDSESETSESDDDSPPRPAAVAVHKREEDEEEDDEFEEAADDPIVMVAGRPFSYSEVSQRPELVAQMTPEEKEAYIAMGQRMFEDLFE

6H–hTFIIEα V372A = molecular target: T2, 6H–hTFIIEα V372A (human, UniProt P29083 1-439, V372A)
T2 sequence: T1 sequence with V372A, A390V

6H–hTFIIEα V372D = molecular target: T3, 6H–hTFIIEα V372D (human, UniProt P29083 1-439, V372D)
T3 sequence: T1 sequence with V372D, A390V

[1] = molecular target: T4, 6H–hTFIIEα wild type (full-length hTFIIEα) (human, UniProt P29083 1-439)
T4 sequence: T1 sequence with A390V

6H–hTFIIEα D380A = molecular target: T5, 6H–hTFIIEα D380A (human, UniProt P29083 1-439, D380A)
T5 sequence: T1 sequence with D380A, A390V

binding result (6H–hTFIIEα V390A): binds
binding result (6H–hTFIIEα V372A): binds
binding result (6H–hTFIIEα V372D): binds
binding result [1]: binds
binding result (6H–hTFIIEα D380A): binds
B1: GST-tagged hTFIIEβ (natural protein)
chain: MDPSLLRERELFKKRALSTPVVEKRSASSESSSSSSKKKKTKVEHGGSSGSKQNSDHSNGSFNLKALSGSSGYKFGVLAKIVNYMKTRHQRGDTHPLTLDEILDETQHLDIGLKQKQWLMTEALVNNPKIEVIDGKYAFKPKYNVRDKKALLRLLDQHDQRGLGGILLEDIEEALPNSQKAVKALGDQILFVNRPDKKKILFFNDKSCQFSVDEEFQKLWRSVTVDSMDEEKIEEYLKRQGISSMQESGPKKVAPIQRRKKPASQKKRRFKTHNEHLAGVLKDYSDITSSK
